Measured values from the nanobody polyreactivity screen of Harvey et al. (2022).

Test: yeast display, Sf9 membrane polyspecificity reagent, FACS + sequencing; frameworks hold sequencing errors
Outline: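 Nanobodies came from a synthetic yeast display library in Saccharomyces cerevisiae BJ5465, induced with galactose for 36–48 hours and stained for 1 hour at 4 °C with 10% biotinylated, detergent-solubilized Sf9 membrane reagent. Cells were enriched on streptavidin microbeads and then FACS-sorted, with low and high (top ~1%) gates set on anti-HA fluorescence for expression and streptavidin fluorescence for reagent binding. Each polyreactivity label reflects the gate a clone came from. Genes were amplified by colony PCR, sequenced by MiSeq 2 × 250 and filtered by CDR length.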

Sequence | polyreactivity (PSR sort gate)
QVQLVESGGGLVQAGGSLRLSCAASGRIFLYYTMGWYRQAPGKERELVAAITRSGGSTYYADSVKGRFTISRDNAKNTVYLQMISLKPEDTAVYYGADRYWERYRAFNYWGQGTQVTVSS | high polyreactivity
QVQLVESGGGLVQAGGSLRISCAASGSTFGWYTMGWYRQAPGKERELVAAISQGGGRTRYADSVKGRFTISRDNAKNTVYLQMNSLKPEDTAVYYCAATYYHRPYISNYGYWGQGTQVTVSS | high polyreactivity
QVQLLESGGGLVQAGGSLRLSCAASGRTFRHNVMAWYRQAPGNERELVAAISYSRGSTHYADSVKGRFTISRDNAKNTVYFQMNSLKPEANAVYYCNRYSYDAHFLYPFRGHDYWGQGTQVTVTS | low polyreactivity
QVQLVESGGGLVQAGGSLRLSCAASGRTYYWNAMGWYRQAPGKEREFVAAITNTAGSTYYADSVKGRFTISRDNAKNTVYLQMNSLKPEDTAVYYCAKSGNAGYRTYLRDYWGQGTQVTVSS | low polyreactivity
QGQLVESGGGLVQAGGSLRLSCAASGTFSPYAMGWYRPAPGKERELVAVITSNTGRTYADSVKGRFTISRDNAKNTVYLQMNSLKPEDTAVYYCASRSTYRHWYRTGSRFDYWGQGTQVTVSS | low polyreactivity
QVQLVESGGGLVQAGGSLRLSCAASGRTFRAYVMGWYRQAPGKERELVAAITGDGGSTYYADSVKGRFTISRDNAKNTVYLQMNSLKPEDTAVYYCAAGYVTVYGYYEYWGQGTQVTVSS | high polyreactivity
QVQLVESGGGLVQAGGSLRLSCAASGSTFAGFTMRWYRQAPGKERELVAAITTRGGRTYYADSVKGRFTISRDNAKNTVYLQMNSLKPEDTAVYYCAAVSRYYAELMYYWGQGTQVTVSS | high polyreactivity
QVQLVESGGGLVQAGGRLRLSCAASGSIMDTNAMGWYRQAPGKERELVARIDIDGSTNYADSVKGRFTISRDNAKKTVYLQMNSLKPEDTAVYYCNKDHSSYGASGYDYWGQGTQVTVSS | low polyreactivity
QVQLVESGGGLVQAGGSLRLSCAASGRISGYNAMGWYRPAPGKQRELVAVITGSGGTYYADSVKGRFTISRDNAKNTVYLQMNSLKPEDSAVYYCAAGLAIRTYYPRYDYWGQGTQVTVSS | low polyreactivity
QVQLVESGGGLVQAGGSLRLSCAASGSTFYTYAMGWYRQAPGKERELVAAITSSGTTNYADSVKGRFTISRDNAKNTVYLQMNSLKPEDTAVYYCAKRSYGGTLHYAFDSWGQGTQVTVSS | low polyreactivity
QVQLVESGGGLVQAGGSLRLSCAASGSIFGNAMGWYRQAPGKEREFVAAISSSGSSTYYADSVKGRFTISRDNAKNTVYLQMNSLKPEDTAVYYCANRRRSAAPKYDYWGQGTQVTVSS | high polyreactivity
QVQLVESGGGLVQAGGSLRLSCAASGGIFKAYAMGWYRQAPGKEREFFAAITSSGGRTSYADSVKGRFTISRDNAKNNVYLQKNSLKQEDTAVYYCAAYGDGIVNSWDSYSEMDYWGQGTQVTVSS | low polyreactivity
QVQLVESGGGVVQAGGSLRLSCAASGSTFLVNAMGWYRQAPGKERELVAAISRSTGSTYYADSVKGRFTISRDNAKNSVYLQMNSLKPEDTAVYYCAVYRHGYGYNYWGQGTQVTVSS | high polyreactivity
QVQLVESGGGLVQAGGSLSLSCAASGLTFDTNAMGWYRQAPGKERELVAAITDSGDSTYYADSVKGRFTISRDNEKNTVYLQMNSLKPEDTAVYYCAARRSNLAWGRRRMYYWGQGTQVTVSS | high polyreactivity
QVQLVESGGGLVQAGGSLRLSCAASGFTFHKNAMGWYRQAPGKERELVAAITNRGGSTYYADSVKGRFTISRDNAKNTVYLQMNSLKPEDTAVYYCAAELRPYITYVGPRKKFYYWGQGTQVTVSS | high polyreactivity
QVQLEDSGGGLVQAGGSLRLICAASGSIFGSYAMGWYRHAPGKERELVAAINSGGSTNYADSVKGRFTISRDNAKNTVYLQMNSLKPEDTAVYYCAARLYSNEYRYDYWGQGTQVTVSS | high polyreactivity
QVQLVESGGGLVQAGGSLRLSCGASGRSSYVYAMGWYRQAPGKERELVAAITSSGGSTYYADSVKGRFTISRDNAKNTVYLQMNSLKPEDTAVYYCAAETYPVWGVAFYYWGQGTQVTVSS | high polyreactivity
